Assay results taken from the supplement of paper PMC10567573.

B1: FAM164C (parent)
chain: YPHCTGISQQDPESDSQGQGNGLF

Variants of: B1
Test: protein stability index of a GFP-peptide fusion (GPS, HEK-293T) (PSI 1-6); higher = more stable
Details: c terminus: a fixed tail appended
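Also: lentivirally expressed fusions sorted by FACS into six bins by GFP to DsRed ratio, PSI derived from sequencing read proportions per bin multiplied by bin number.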

Protein stability index, by site and new letter:
G6: K 3.23 | C 2.46 | F 3.01 | I 3.25 | Y 2.77 | Q 3.58 | H 3.62 | W 2.87 | V 4.17 | N 3.56 | M 3.34 | T 3.51 | A 3.53 | R 3.45 | S 3.82 | L 3.25 | P 2.25 | D 4.23 | E 4.46
Q9: P 3.67 | I 3.71 | F 3.05 | K 3.42 | N 3.5 | V 3.19 | D 3.91 | R 3.68 | Y 3.11 | E 3.89 | W 2.48 | G 3.85 | T 3.63 | S 3.97 | L 2.98 | M 3.49 | H 3.58 | C 3.43 | A 4.06
T5: S 3.53 | H 3.2 | E 4.49 | L 2.35 | P 3.25 | W 1.68 | Y 3.17 | C 1.9 | K 3.55 | A 3.46 | D 4.6 | M 2.23 | N 3.32 | V 3.18 | G 2.93 | Q 3.89 | R 2.71 | I 3.34 | F 2.32
P2: T 3.35 | S 4.65 | W 3.67 | Q 3.58 | R 4.71 | V 1.91 | Y 4.22
D11: E 4.2 | I 3.1 | K 3.85 | A 3.66 | H 3.12 | C 3.15 | G 3.18 | F 2.96
Q10: V 3.74 | A 3.48 | N 4.05 | M 3.84 | G 3.88 | E 3.87 | F 3.19 | R 3.54 | I 3.64 | L 2.96 | C 3.1 | P 3.78 | S 3.48 | D 3.68 | H 3.65 | K 4 | W 2.87 | Y 3.07 | T 3.64
I7: K 3.56 | H 4 | G 3.83 | W 1.51 | A 4.04 | S 3.86 | F 2.21 | V 3.82 | C 3.56 | P 4.18 | D 4.45 | R 3.94 | Y 2.64 | T 3.95 | E 4.68 | N 4.11 | Q 4.01 | L 3.9 | M 3.38
S8: T 3.74 | N 3.39 | G 3.52 | L 3.35 | A 3.51 | W 1.84 | Q 3.95 | P 3.91 | F 2.69 | D 3.91 | E 4.17 | V 3.73 | R 3.57 | Y 2.75 | I 3.59 | C 3.11 | M 3.33 | H 3.65 | K 4.15
C4: K 4.39 | Y 3.17 | S 4.16 | A 3.92 | T 4.32 | L 4.36 | I 3.72 | M 4.36 | W 2.75 | E 4.82 | V 4.07 | N 4.25 | D 5.02 | G 3.5 | R 4.06 | H 4.24 | P 3.37 | Q 4.53 | F 3.58
H3: W 3.22 | N 4.09 | K 3.9 | T 4.12 | M 3.46 | C 3.1 | V 4.34 | A 3.75 | F 4 | Q 3.29 | D 4.48 | G 3.39 | P 3.32 | L 3.37 | Y 3.2 | R 3.6 | I 4.18 | S 3.07 | E 4.58
